# Target: S. aureus FakA (S. aureus)
substance,measurement,value
FakB1(A121I) (from UniProt X5EH37 1-288) (natural protein),"apparent KM for FakB1(A121I) in the FA kinase assay (0.2 µM FakA, [14C]16:0)",0.1 µM
S. aureus wild-type FakB1 (from UniProt X5EH37 1-288) (natural protein),"apparent KM for FakB1 in the FA kinase assay (0.2 µM FakA, [14C]16:0)",0.13 µM
FakB1(A158L) (from UniProt X5EH37 1-288) (natural protein),"apparent KM for FakB1(A158L) in the FA kinase assay (0.2 µM FakA, [14C]16:0)",0.13 µM

# From article doi:10.1101/2021.09.16.460654
